Data as given in article PMC8534323.

T1: enolase (Eno1) (C. albicans (endogenous in strain ATCC 10231)), P30575
T1 chain: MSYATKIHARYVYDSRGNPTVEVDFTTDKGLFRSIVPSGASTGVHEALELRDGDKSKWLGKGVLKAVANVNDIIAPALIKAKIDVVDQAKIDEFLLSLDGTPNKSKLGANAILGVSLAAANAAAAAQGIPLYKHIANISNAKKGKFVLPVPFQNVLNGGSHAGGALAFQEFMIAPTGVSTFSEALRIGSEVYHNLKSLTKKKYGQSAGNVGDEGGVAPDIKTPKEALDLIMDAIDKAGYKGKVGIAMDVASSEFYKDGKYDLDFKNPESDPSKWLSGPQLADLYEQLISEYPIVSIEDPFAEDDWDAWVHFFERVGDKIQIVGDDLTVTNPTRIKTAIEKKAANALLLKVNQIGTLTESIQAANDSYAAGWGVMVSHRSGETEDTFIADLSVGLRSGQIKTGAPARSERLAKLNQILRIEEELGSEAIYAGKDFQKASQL

T2: Phosphoglycerate mutase 1 (Gpm1), recombinant (C. albicans), P82612
T2 chain: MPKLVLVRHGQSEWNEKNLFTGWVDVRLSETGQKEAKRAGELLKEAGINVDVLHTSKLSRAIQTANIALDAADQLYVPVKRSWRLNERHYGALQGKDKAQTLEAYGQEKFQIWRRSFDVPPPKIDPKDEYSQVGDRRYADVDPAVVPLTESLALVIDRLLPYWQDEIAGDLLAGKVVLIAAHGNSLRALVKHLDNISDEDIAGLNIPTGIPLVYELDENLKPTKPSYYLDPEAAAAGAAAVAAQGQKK


Columns and labels:
[1] = molecular target: T1, enolase (Eno1) (C. albicans (endogenous …)); assay: SPR; details: remark: other sources report otherwise
[2] = molecular target: T2, Phosphoglycerate mutase 1 (Gpm1), …; assay: SPR; details: remark: other sources report otherwise

Row | Binder | Kd [1] [nM] | Kd [2] [nM]
1 | human neutrophil elastase (HNE), P08246 30-267 (enzyme, here or on the partner: sulfo-SBED crosslinker in the cross-linking experiment; in flow cytometry preincubated or not with 10 µM N-(Methoxysuccinyl)-Ala-Ala-Pro-Val-chloromethyl ketone) IVGGRRARPHAWPFMVSLQLRGGHFCGATLIAPNFVMSAAHCVANVNVRAVRVVLGAHNLSRREPTRQVFAVQRIFENGYDPVNLLNDIVILQLNGSATINANVQVAQLPAQGRRLGNGVQCLAMGWGLLGRNRGIASVLQELNVTVVTSLCRRSNVCTLVRGRQAGVCFGDSGSPLVCNGLIHGIASFVRGGCASGLYPDAFAPVAQFVNWIDSIIQRSEDNPCPHPRDPDPASRTH | 36.1 | 
2 | lactotransferrin (LF), P02788 20-710 (natural protein, here or on the partner: NHS-fluorescein label in flow cytometry; sulfo-SBED crosslinker in the cross-linking experiment) GRRRSVQWCAVSQPEATKCFQWQRNMRKVRGPPVSCIKRDSPIQCIQAIAENRADAVTLDGGFIYEAGLAPYKLRPVAAEVYGTERQPRTHYYAVAVVKKGGSFQLNELQGLKSCHTGLRRTAGWNVPIGTLRPFLNWTGPPEPIEAAVARFFSASCVPGADKGQFPNLCRLCAGTGENKCAFSSQEPYFSYSGAFKCLRDGAGDVAFIRESTVFEDLSDEAERDEYELLCPDNTRKPVDKFKDCHLARVPSHAVVARSVNGKEDAIWNLLRQAQEKFGKDKSPKFQLFGSPSGQKDLLFKDSAIGFSRVPPRIDSGLYLGSGYFTAIQNLRKSEEEVAARRARVVWCAVGEQELRKCNQWSGLSEGSVTCSSASTTEDCIALVLKGEADAMSLDGGYVYTAGKCGLVPVLAENYKSQQSSDPDPNCVDRPVEGYLAVAVVRRSDTSLTWNSVKGKKSCHTAVDRTAGWNIPMGLLFNQTGSCKFDEYFSQSCAPGSDPRSNLCALCIGDEQGENKCVPNSNERYYGYTGAFRCLAENAGDVAFVKDVTVLQNTDGNNNEAWAKDLKLADFALLCLDGKRKPVTEARSCHLAMAPNHAVVSRMDKVERLKQVLLHQQAKFGRNGSDCPDKFCLFQSETKNLLFNDNTECLARLHGKTTYEKYLGPQYVAGITNLKKCSTSPLLEACEFLRK | 72.2 | 21.4
